The results in this text go back to patent US20240261333A1 (published 2024).

Common to all, as to assay: co-IP with anti-FLAG, N-FLAG B3GNT2, mass spectrometry
For one experiment, the target named is T1, YBX1 (human, UniProt P67809 2-324).
T1 construct: also called NP_004550.2

The next experiment deals with T2, FLG (human, UniProt P20930 1-4061, limits assumed).
T2 construct: also called NP_002007.1

For a further experiment, the target named is T3, DHX9 (human, UniProt Q08211 1-1270).
T3 construct: also called NP_001348.2

Another experiment addresses RPS14 (human, UniProt P62263 2-151).
In the next experiment the target is T4, P4HA2 (human, UniProt O15460 22-535, limits assumed).
T4 construct: also called NP_001352606.1 (+3)

For a further experiment, the target named is RPL6 (human, UniProt Q02878 2-288).
A further experiment has as its target T5, DDX3X (human, UniProt O00571 2-662).
T5 construct: also called NP_001180345.1 (+1)

The next experiment deals with T6, TTC13 (human, UniProt Q8NBP0-2 1-806, limits assumed).
T6 construct: also called NP_001116307.2 (+5)
T6 sequence (looked up): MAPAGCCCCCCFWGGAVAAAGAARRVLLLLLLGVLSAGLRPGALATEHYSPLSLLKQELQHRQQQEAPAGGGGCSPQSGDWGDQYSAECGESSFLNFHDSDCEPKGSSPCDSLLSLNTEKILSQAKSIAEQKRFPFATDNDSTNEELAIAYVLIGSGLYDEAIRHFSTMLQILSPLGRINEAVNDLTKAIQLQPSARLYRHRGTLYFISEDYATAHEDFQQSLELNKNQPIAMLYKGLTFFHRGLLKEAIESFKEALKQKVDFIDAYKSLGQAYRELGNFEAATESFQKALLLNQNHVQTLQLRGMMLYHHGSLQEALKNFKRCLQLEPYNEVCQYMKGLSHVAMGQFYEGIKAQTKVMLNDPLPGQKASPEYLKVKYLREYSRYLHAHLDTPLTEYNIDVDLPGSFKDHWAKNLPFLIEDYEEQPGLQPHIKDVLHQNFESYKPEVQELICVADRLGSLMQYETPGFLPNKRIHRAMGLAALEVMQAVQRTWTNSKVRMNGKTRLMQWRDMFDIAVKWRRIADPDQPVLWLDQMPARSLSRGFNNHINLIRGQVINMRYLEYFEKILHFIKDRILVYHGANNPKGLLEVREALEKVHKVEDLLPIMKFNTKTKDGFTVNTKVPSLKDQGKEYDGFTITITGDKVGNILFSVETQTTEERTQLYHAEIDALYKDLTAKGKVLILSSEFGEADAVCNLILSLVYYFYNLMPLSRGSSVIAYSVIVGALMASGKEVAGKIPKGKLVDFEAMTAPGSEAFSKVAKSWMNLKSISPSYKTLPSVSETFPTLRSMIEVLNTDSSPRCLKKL

T1 sequence (P67809 2-324 limits assumed): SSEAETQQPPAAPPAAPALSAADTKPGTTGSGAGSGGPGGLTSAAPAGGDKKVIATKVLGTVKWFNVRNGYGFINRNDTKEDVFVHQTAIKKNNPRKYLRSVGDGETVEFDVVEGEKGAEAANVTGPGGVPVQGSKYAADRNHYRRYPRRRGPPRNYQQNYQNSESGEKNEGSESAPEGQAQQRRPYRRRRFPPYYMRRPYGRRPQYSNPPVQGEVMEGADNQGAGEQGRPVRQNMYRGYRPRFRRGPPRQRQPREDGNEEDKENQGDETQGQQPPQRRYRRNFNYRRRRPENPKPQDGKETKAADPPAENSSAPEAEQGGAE
T5 sequence (O00571 2-662 limits assumed): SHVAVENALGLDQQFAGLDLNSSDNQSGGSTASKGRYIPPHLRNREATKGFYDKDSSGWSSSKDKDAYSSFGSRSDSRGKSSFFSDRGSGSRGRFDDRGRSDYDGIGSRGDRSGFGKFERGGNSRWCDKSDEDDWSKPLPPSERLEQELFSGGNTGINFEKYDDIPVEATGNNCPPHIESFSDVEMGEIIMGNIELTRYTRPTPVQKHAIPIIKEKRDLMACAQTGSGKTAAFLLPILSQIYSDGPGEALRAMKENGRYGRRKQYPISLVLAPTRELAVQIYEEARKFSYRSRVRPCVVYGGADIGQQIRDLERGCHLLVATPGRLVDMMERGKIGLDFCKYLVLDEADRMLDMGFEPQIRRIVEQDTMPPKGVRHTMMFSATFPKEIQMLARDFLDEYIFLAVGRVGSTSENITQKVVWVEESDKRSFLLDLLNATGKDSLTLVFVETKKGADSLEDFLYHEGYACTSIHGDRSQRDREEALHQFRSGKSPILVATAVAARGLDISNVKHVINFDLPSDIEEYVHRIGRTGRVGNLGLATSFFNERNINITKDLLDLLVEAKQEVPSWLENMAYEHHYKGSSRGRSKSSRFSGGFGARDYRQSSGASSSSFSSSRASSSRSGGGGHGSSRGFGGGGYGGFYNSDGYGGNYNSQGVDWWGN
T2 sequence (P20930 whole entry): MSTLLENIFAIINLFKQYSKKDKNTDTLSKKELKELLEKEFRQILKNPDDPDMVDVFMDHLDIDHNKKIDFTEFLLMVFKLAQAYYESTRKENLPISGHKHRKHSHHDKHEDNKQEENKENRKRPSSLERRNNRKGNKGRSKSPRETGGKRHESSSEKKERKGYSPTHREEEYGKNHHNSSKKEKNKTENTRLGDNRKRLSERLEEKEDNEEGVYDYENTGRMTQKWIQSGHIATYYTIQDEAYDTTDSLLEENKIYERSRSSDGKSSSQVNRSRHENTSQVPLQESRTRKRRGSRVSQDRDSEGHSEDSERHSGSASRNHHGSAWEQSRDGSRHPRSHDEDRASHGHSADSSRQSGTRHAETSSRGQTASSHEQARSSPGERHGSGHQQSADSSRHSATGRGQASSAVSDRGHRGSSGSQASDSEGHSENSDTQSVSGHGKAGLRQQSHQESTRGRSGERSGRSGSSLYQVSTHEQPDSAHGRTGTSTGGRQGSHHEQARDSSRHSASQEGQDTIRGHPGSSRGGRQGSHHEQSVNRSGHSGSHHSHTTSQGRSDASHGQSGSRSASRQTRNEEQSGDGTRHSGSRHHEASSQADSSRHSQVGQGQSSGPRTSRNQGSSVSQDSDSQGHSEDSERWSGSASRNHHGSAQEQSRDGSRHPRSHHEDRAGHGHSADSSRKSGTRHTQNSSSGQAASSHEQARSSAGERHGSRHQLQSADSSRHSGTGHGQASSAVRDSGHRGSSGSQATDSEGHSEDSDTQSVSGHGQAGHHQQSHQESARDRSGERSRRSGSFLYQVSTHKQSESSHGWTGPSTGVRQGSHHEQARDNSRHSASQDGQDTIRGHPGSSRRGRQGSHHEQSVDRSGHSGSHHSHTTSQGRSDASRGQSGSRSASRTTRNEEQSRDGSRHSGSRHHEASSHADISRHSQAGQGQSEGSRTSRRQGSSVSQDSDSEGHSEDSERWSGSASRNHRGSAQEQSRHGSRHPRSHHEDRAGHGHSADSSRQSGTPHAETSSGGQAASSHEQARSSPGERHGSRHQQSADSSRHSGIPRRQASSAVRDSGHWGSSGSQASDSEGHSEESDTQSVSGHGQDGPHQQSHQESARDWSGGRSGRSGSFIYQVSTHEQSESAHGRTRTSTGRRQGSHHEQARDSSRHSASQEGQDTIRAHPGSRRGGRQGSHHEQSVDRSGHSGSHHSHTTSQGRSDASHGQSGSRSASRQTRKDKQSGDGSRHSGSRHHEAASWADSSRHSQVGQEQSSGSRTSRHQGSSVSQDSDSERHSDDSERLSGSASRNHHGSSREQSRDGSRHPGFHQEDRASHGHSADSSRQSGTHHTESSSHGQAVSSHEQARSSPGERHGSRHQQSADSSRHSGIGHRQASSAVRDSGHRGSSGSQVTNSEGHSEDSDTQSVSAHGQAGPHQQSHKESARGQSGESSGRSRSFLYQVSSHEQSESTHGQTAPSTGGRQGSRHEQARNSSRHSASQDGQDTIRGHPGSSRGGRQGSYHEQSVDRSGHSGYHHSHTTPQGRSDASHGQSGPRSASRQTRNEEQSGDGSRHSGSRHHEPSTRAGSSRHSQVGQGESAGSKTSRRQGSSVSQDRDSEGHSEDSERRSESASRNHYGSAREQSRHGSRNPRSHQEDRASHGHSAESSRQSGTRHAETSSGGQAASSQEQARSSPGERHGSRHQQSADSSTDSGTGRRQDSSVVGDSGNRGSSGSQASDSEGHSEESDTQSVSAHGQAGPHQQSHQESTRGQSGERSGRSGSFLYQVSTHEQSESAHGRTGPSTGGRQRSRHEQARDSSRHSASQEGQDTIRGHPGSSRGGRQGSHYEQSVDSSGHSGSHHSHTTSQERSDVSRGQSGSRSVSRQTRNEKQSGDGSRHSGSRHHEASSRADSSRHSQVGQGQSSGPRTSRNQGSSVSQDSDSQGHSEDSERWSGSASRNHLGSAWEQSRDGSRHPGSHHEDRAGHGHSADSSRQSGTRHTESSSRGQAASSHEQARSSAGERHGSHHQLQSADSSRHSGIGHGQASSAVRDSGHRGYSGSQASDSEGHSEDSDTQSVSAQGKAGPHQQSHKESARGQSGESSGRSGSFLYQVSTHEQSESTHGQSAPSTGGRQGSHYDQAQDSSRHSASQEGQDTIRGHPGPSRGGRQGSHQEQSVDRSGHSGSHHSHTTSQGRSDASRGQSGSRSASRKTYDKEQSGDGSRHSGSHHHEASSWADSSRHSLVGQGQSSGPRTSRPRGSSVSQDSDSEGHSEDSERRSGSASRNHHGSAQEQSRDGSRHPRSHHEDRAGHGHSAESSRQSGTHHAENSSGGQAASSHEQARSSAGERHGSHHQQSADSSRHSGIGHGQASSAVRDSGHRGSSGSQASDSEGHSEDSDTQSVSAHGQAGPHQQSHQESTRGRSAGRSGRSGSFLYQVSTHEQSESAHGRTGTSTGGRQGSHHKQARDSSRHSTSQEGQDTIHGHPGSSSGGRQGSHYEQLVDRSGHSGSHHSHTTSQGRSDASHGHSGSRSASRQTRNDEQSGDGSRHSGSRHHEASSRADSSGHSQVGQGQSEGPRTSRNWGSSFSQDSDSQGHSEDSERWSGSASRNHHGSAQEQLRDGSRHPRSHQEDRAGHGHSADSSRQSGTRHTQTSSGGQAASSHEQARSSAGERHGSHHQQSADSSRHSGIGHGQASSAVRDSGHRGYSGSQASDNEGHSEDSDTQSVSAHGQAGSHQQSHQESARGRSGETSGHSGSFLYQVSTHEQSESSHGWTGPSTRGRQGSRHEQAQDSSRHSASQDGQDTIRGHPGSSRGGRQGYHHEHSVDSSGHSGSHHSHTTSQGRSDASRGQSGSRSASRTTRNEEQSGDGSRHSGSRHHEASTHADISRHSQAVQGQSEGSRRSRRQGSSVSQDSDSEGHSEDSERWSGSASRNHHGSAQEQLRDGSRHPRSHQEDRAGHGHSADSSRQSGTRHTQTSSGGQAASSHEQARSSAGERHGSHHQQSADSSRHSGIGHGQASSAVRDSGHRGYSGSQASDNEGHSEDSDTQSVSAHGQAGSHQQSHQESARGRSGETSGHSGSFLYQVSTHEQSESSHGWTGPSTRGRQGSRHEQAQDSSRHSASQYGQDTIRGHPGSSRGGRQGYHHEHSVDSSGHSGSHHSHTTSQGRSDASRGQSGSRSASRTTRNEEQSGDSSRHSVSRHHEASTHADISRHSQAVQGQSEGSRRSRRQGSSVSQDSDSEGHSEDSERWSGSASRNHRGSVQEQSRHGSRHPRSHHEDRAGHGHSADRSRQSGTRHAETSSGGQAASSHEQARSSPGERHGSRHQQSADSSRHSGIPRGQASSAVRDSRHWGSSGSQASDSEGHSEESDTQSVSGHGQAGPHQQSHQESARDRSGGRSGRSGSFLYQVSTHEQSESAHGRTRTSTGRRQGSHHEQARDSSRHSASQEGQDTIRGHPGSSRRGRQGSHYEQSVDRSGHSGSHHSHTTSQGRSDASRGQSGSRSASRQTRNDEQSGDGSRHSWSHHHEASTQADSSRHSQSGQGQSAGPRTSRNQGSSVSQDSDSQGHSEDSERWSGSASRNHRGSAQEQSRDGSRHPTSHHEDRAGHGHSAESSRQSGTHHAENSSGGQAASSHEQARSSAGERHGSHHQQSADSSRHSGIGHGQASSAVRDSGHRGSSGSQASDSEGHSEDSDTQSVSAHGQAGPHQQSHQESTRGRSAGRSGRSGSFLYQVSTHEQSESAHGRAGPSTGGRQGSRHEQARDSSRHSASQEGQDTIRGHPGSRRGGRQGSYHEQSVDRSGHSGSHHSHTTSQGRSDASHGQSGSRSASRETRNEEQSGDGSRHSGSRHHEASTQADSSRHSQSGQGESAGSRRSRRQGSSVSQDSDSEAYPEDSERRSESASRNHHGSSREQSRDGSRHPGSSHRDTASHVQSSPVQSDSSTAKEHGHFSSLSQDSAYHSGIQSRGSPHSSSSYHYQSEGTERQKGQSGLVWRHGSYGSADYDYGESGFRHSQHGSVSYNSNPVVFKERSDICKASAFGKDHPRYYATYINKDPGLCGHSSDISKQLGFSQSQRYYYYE

B1: N-terminal FLAG tagged B3GNT2 (enzyme, human, UniProt Q9NY97 1-397, looked up)
chain: MSVGRRRIKLLGILMMANVFIYFIMEVSKSSSQEKNGKGEVIIPKEKFWKISTPPEAYWNREQEKLNRQYNPILSMLTNQTGEAGRLSNISHLNYCEPDLRVTSVVTGFNNLPDRFKDFLLYLRCRNYSLLIDQPDKCAKKPFLLLAIKSLTPHFARRQAIRESWGQESNAGNQTVVRVFLLGQTPPEDNHPDLSDMLKFESEKHQDILMWNYRDTFFNLSLKEVLFLRWVSTSCPDTEFVFKGDDDVFVNTHHILNYLNSLSKTKAKDLFIGDVIHNAGPHRDKKLKYYIPEVVYSGLYPPYAGGGGFLYSGHLALRLYHITDQVHLYPIDDVYTGMCLQKLGLVPEKHKGFRTFDIEEKNKNNICSYVDLMLVHSRKPQEMIDIWSQLQSAHLKC
notes: FLAG-tagged ORF overexpressed in cells; pulled down from lysate with mouse anti-FLAG; also called N-FLAG B3GNT2; N-term FLAG; not shown: N-terminal FLAG tag
Regarding B1, the “co-IP mass spectrometry count” value with YBX1 came to 2; with FLG it was 29; with DHX9, 0; in the experiment with RPS14, 11.

B2: N-terminal FLAG tagged B3GNT2 (enzyme, human, UniProt Q9NY97 1-397, looked up)
chain: B1 chain
notes: FLAG-tagged ORF overexpressed in A375 cells; pulled down from the lysate with mouse anti-FLAG; also called N-FLAG B3GNT2; N-term FLAG; not shown: N-terminal FLAG tag
For B2, the “co-IP/MS count, N-term FLAG” value with P4HA2 stood at 0; in the experiment with RPL6 it was 10; with DDX3X, 18; in the experiment with TTC13 it was 0.
